# Measurements as given in US10472652B2, “Chemical engineering processes and apparatus for the synthesis of compounds” (TEEWINOT T[…], priority 2013, dated 2019).
# T1: THCA synthase (Cannabis sativa, UniProt Q8GTB6)
# T1 construct: His-tag (C); made in house; host or cells: Pichia pastoris (PichiaPink, pPink-HC vector), secreted into the medium; cell-free T3 supernatant used
# T1 sequence (Q8GTB6 29-545): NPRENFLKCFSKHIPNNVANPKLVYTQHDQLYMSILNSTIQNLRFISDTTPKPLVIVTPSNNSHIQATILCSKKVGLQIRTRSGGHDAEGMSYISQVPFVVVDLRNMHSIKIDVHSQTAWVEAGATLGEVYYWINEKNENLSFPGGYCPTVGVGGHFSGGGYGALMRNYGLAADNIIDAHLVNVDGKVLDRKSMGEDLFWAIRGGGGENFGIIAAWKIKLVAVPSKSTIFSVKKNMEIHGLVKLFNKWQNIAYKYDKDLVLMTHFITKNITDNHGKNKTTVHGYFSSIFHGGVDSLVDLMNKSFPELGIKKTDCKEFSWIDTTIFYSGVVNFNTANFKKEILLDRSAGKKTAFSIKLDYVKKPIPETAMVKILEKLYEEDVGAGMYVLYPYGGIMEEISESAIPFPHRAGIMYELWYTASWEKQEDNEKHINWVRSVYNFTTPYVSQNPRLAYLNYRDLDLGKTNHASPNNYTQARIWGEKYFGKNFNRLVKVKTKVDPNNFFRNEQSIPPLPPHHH
# B1: Pme THC #5: cell free supernatant with THCA synthase from a pPink yeast colony transformed with Pme I linearized THCA synthase plasmid (protein, UniProt Q8GTB6 29-545, looked up)
# Tetrahydrocannabinolic acid …: T1 sequence (Q8GTB6 29-545)
# modifications: yeast culture supernatant
# notes: cell free supernatant with THCA synthase from a pPink yeast colony transformed with Pme I linearized THCA synthase plasmid
# B2: Pme THC(3) #19: cell free supernatant with THCA synthase from a pPink yeast colony transformed with Pme I linearized THCA synthase plasmid (protein, UniProt Q8GTB6 29-545, looked up)
# Tetrahydrocannabinolic acid …: T1 sequence (Q8GTB6 29-545)
# modifications: yeast culture supernatant
# notes: as for B1
# B3: Pme THC(3) #1: cell free supernatant with THCA synthase from a pPink yeast colony transformed with Pme I linearized THCA synthase plasmid (protein, UniProt Q8GTB6 29-545, looked up)
# Tetrahydrocannabinolic acid …: T1 sequence (Q8GTB6 29-545)
# modifications: yeast culture supernatant
# notes: as for B1
# B4: Pme THC(2) #51: cell free supernatant with THCA synthase from a pPink yeast colony transformed with Pme I linearized THCA synthase plasmid (protein, UniProt Q8GTB6 29-545, looked up)
# Tetrahydrocannabinolic acid …: T1 sequence (Q8GTB6 29-545)
# modifications: yeast culture supernatant
# notes: as for B1
# B5: Pme THC(2) #36: cell free supernatant with THCA synthase from a pPink yeast colony transformed with Pme I linearized THCA synthase plasmid (protein, UniProt Q8GTB6 29-545, looked up)
# Tetrahydrocannabinolic acid …: T1 sequence (Q8GTB6 29-545)
# modifications: yeast culture supernatant
# notes: as for B1
# B6: Pme THC(2) #1: cell free supernatant with THCA synthase from a pPink yeast colony transformed with Pme I linearized THCA synthase plasmid (protein, UniProt Q8GTB6 29-545, looked up)
# Tetrahydrocannabinolic acid …: T1 sequence (Q8GTB6 29-545)
# modifications: yeast culture supernatant
# notes: as for B1
# B7: Spe THC #3: cell free supernatant with THCA synthase from a pPink yeast colony transformed with Spe I linearized THCA synthase plasmid (protein, UniProt Q8GTB6 29-545, looked up)
# Tetrahydrocannabinolic acid …: T1 sequence (Q8GTB6 29-545)
# modifications: yeast culture supernatant
# notes: cell free supernatant with THCA synthase from a pPink yeast colony transformed with Spe I linearized THCA synthase plasmid
# B8: Pme THC(3) #20: cell free supernatant with THCA synthase from a pPink yeast colony transformed with Pme I linearized THCA synthase plasmid (protein, UniProt Q8GTB6 29-545, looked up)
# Tetrahydrocannabinolic acid …: T1 sequence (Q8GTB6 29-545)
# modifications: yeast culture supernatant
# notes: as for B1
# B9: Pme THC(2) #41: cell free supernatant with THCA synthase from a pPink yeast colony transformed with Pme I linearized THCA synthase plasmid (protein, UniProt Q8GTB6 29-545, looked up)
# Tetrahydrocannabinolic acid …: T1 sequence (Q8GTB6 29-545)
# modifications: yeast culture supernatant
# notes: as for B1
# B10: Spe THC #4: cell free supernatant with THCA synthase from a pPink yeast colony transformed with Spe I linearized THCA synthase plasmid (protein, UniProt Q8GTB6 29-545, looked up)
# Tetrahydrocannabinolic acid …: T1 sequence (Q8GTB6 29-545)
# modifications: yeast culture supernatant
# notes: as for B7
# B11: Pme THC(3) #11: cell free supernatant with THCA synthase from a pPink yeast colony transformed with Pme I linearized THCA synthase plasmid (protein, UniProt Q8GTB6 29-545, looked up)
# Tetrahydrocannabinolic acid …: T1 sequence (Q8GTB6 29-545)
# modifications: yeast culture supernatant
# notes: as for B1
# B12: Pme THC(2) #25: cell free supernatant with THCA synthase from a pPink yeast colony transformed with Pme I linearized THCA synthase plasmid (protein, UniProt Q8GTB6 29-545, looked up)
# Tetrahydrocannabinolic acid …: T1 sequence (Q8GTB6 29-545)
# modifications: yeast culture supernatant
# notes: as for B1
# B13: Pme THC(3) #17: cell free supernatant with THCA synthase from a pPink yeast colony transformed with Pme I linearized THCA synthase plasmid (protein, UniProt Q8GTB6 29-545, looked up)
# Tetrahydrocannabinolic acid …: T1 sequence (Q8GTB6 29-545)
# modifications: yeast culture supernatant
# notes: as for B1
# B14: Pme THC(2) #2A: cell free supernatant with THCA synthase from a pPink yeast colony transformed with Pme I linearized THCA synthase plasmid (protein, UniProt Q8GTB6 29-545, looked up)
# Tetrahydrocannabinolic acid …: T1 sequence (Q8GTB6 29-545)
# modifications: yeast culture supernatant
# notes: as for B1
# B15: Pme THC(2) #46: cell free supernatant with THCA synthase from a pPink yeast colony transformed with Pme I linearized THCA synthase plasmid (protein, UniProt Q8GTB6 29-545, looked up)
# Tetrahydrocannabinolic acid …: T1 sequence (Q8GTB6 29-545)
# modifications: yeast culture supernatant
# notes: as for B1
# B16: Pme THC(2) #42: cell free supernatant with THCA synthase from a pPink yeast colony transformed with Pme I linearized THCA synthase plasmid (protein, UniProt Q8GTB6 29-545, looked up)
# Tetrahydrocannabinolic acid …: T1 sequence (Q8GTB6 29-545)
# modifications: yeast culture supernatant
# notes: as for B1
# B17: Spe THC #22: cell free supernatant with THCA synthase from a pPink yeast colony transformed with Spe I linearized THCA synthase plasmid (protein, UniProt Q8GTB6 29-545, looked up)
# Tetrahydrocannabinolic acid …: T1 sequence (Q8GTB6 29-545)
# modifications: yeast culture supernatant
# notes: as for B7
# Target: T1, THCA synthase
# Assay: catalytic activity of THCA synthase from independent colonies of transformed pPink yeast cells (conversion of CBGA to THCA)
# Type: biochemical
# Settings: 25 μl cell free supernatant of T3 sample, 100 mM citrate buffer, 10% DMSO, final pH 5.0, 2 hours at 30° C.
# Method: After 24 hours a 100 μL of the cell sample was removed to which was added 100 μL of 40% methanol to induce enzyme production. This methanolic sample was then centrifuged at 12,000 rpm for 5 minutes and the supernatant and pellet were saved as the T1 sample. A second culture sample was obtained after a 48 hour incubation period and treated with methanol as described above. After centrifugation, the supernatant and pellet are saved as the T2 sample. At 72 hours the entire incubation mixture is treated with an appropriate volume of 40% methanol. The supernatant and pellet obtained from methanolic treatment of the culture after a 72 hour incubation period is labeled as T3. The T3 supernatant was spun through an Amicon 30 kD protein filter and analyzed for protein using an SDS-PAGE gel.
# The catalytic activity of THCA synthase was measured by incubating 25 μl of the cell free supernatant from a T3 sample with 25 μl of a 1 mg/ml CBGA stock in 200 μl of a 100 mM citrate buffer at pH 4.8 having 10% DMSO for 2 hours at 30° C. The final concentration of CBGA in the reaction mixture was 0.1 mg/ml and the final pH is 5.0. Table 4 illustrates the data related to the catalytic activity of THCA synthase obtained from independent colonies of transformed pPink yeast cells, namely. pPink yeast cells that were transformed using linearized THCA synthase plasmids. Culture samples that converted greater than 20% of the substrate CBGA to product THCA were selected for scale up.
row,Molecule,% Conversion of CBGA to THCA in reaction containing 0.1 mg/ml CBGA. [%]
1,B1,32.5
2,B2,36.8
3,B3,55.2
4,B4,26.8
5,B5,27.7
6,B6,29.1
7,B7,20.6
8,B8,34.3
9,B9,32.5
10,B10,28.7
11,B11,35.0
12,B12,31.6
13,B13,69.9
14,B14,27.2
15,B15,40.7
16,B16,27.6
17,B17,20.6
